US5834428A, “Glucagon-like peptide-2 and its therapeutic use” (1149336 Ontario Inc., priority 1996, dated 1998)
Where “and” joins values, the source holds several entries; their conditions need not be identical. Equal values may be shown once. Each block holds one molecule with its values, some of them ahead of it. Ends that are not written are not given here.

Experiments:
[1] = Complete autopsy after long term administration; type: in vivo, mice; conditions: 5 μg once a day s.c. in 10% gelatin for 4, 8 or 12 weeks
Experimental: Effect of Long Term Administration: Rat GLP-2 in a 10% gelatin formulation was administered s.c. in a single dose of 5 μg once a day continuously for 4 weeks (panel A), for 8 weeks (panel B) or for 12 weeks (panel C). FIG. 5 illustrates GLP-2 mediated effects on small bowel weight (BW) and in the crypt plus villus heights (PJ, DJ and DI) in treated groups (T), relative to a control (C) receiving 10% gelatin alone. […] A similar response was noted also for the distal jejunum.

[2] = Weight of mice during 10-day peptide treatment (Example 1); type: in vivo; conditions: individual mice
Experimental: (§1) In a first experiment designed to investigate the effect of glicentin on small bowel growth, two groups of six mice (8 week, CD1 females from Charles River Laboratories) were treated as follows. Each mouse received 41.5 μg injections every 12 hours for 10 days. The injections were delivered subcutaneously in a final volume of 16% gelatin, with 0.5 cc injected subcutaneously every 12 hours. […] Control mice received 0.5 cc of 16% gelatin solution, but no peptide, every 12 hours. Mice were fed standard rat chow with free access to food and water, until 12 hours prior to sacrifice, at which time food was withheld, and water only was given. The weight of the small bowel was ascertained by excising the entire small bowel, and removing the stomach (proximal end) and appendix/cecum/large bowel (distal end). The remaining small bowel was cleaned with saline to remove feces, and weighed.
(§2) Mice were injected with 0.5 ml of the 16% gelatin solution, without or with peptide (62.5 μg/dose). Four groups of four mice (8 week, CD1 females from Charles River Laboratories) were injected twice daily for 10 days.

small bowel = test: Small bowel weight in mice after 10 days of s.c. peptide in 16% gelatin (Example 1); type: in vivo; conditions: for Small bowel weight Day 10: individual mice
Experimental: as §1, with “weighed. Results were as follows:” for “weighed.”
GLP-2 formulations for injection were prepared as follows: Gelatin was dissolved in warm water to a weight ratio of 16%, and the 50 mL solution was autoclaved and cooled to room temperature. A peptide solution was then separately prepared by mixing 5 mg of GLP-2 with water at a volume slightly less than 10 mL, and then adding 1N acetic acid in a volume (10-20 μL) sufficient to dissolve the peptide completely. The pH was then readjusted to about 7.0 by addition of an equal volume of 1N NaOH (10-20 μL), and the solution volume was then adjusted to 10 mL by addition of distilled water. To prepare the formulation for injection, the 10 mL peptide solution and the 50 mL solution of 16% gelatin were combined with mixing, and aliquots for injection were drawn into a 0.5 mL insulin syringe.
as §2

Solubility in water = type: physicochemical; conditions: preparation of injection solution
[3] = 62.5 μg/dose twice daily for 10 days in 16% gelatin
[4] = group of four mice, 62.5 μg/dose twice daily for 10 days in 16% gelatin
[5] = 41.5 μg s.c. every 12 hours for 10 days in 16% gelatin

histological abnormalities at autopsy [1]: no histological abnormalities found
Molecule: HADGSFSDEMNTILDNLATRDFINWLIQTKITD [rat GLP-2]
Weight of Mice Day 10 [2, 3]: 23.7 gm and 25.7 gm and 27.1 gm and 25.4 gm

Molecule: GLP-1: human GLP-1 (7-36 amide), custom synthesized by tBoc-based solid phase approach [reference compound]
Small bowel weight % body wt (small bowel; [4]): 5.26 ± .2 % body wt | Small bowel weight Average (small bowel; [4]): 1.33 ± .04 gm | Small bowel weight Day 10 (small bowel; [3]): 1.4 gm and 1.3 gm and 1.2 gm | solubility in water (Solubility in water): relative greater solubility in water | Weight of Mice Day 10 [2, 3]: 24.8 gm and 22.8 gm and 26.5 gm

B1: Glicentin: glicentin (rat), proglucagon gene-derived peptide (peptide, UniProt P06883 21-89, looked up)
Glicentin: HAPQDTEENARSFPASQTEPLEDPDQINEDKRHSQGTFTSDYSKYLDSRRAQDFVQWLMNTKRNRNNIA
modifications: Glicentin
notes: glicentin (rat), proglucagon gene-derived peptide
intestinotrophic effect (small bowel; 41.5 μg s.c. every 12 hours for 10 days): modest | Small bowel weight Day 10 (small bowel; [5]): 1.6 gm and 1.7 gm and 1.3 gm and 1.9 gm | solubility in water (Solubility in water): dissolved easily | Weight of Mice Day 10 [2, 5]: 26.6 gm and 26.2 gm and 24.5 gm and 24.7 gm and 25.8 gm
